# Where two headings read alike, the source gives them in different places.
# Key:
# BSA (bovine) [1] = target: BSA (bovine) (UniProt P02769); assay: ELISA, BSA coated as negative control, binder 1 µg/mL, chemiluminescence
# BSA (bovine) [2] = target: BSA (bovine) (UniProt P02769); assay: as above; remark: listed apart in the source
# BSA (bovine), sequence (P02769 25-607 limits assumed): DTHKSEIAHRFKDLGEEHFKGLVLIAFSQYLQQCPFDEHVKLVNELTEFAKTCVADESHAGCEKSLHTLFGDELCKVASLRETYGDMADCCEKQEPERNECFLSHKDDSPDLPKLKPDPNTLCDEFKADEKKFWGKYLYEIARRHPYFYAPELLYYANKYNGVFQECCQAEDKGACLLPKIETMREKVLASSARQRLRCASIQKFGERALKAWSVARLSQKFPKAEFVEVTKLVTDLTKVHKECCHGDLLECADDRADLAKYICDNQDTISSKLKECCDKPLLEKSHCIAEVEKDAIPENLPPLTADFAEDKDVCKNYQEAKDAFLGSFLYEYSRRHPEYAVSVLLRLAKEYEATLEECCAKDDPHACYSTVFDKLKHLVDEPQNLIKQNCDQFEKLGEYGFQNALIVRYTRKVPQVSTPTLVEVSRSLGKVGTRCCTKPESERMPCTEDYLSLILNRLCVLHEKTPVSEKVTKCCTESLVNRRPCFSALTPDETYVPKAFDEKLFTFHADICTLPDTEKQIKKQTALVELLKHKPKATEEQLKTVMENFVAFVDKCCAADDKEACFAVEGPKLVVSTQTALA
# BD23 (antibody), sequence (VH): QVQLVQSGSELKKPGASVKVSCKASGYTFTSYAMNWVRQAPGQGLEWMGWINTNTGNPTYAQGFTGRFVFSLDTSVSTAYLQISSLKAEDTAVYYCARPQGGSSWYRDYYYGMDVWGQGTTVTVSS
# BD23 (antibody), sequence (VL): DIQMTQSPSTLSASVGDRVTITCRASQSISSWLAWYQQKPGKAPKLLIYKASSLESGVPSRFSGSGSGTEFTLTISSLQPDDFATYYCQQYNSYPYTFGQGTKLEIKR
# CR3022 (antibody), sequence (VH): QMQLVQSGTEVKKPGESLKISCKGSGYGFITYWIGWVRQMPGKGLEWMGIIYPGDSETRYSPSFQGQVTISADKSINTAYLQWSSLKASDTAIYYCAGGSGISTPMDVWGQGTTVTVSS
# CR3022 (antibody), sequence (VL): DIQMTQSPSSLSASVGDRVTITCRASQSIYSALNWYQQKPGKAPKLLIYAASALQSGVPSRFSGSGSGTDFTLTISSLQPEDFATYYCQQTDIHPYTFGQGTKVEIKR
Substance,signal intensity (BSA (bovine) [1]),signal intensity (BSA (bovine) [2])
BD23 (antibody),83,13
CR3022 (antibody),53,63
CV30 (antibody),33,73
REGN10933 (antibody),63,53
REGN10987 (antibody),63,43
